These results are taken from PMC11381523 (Nature Communications, 2024).

For this assay, the target named is Rpb2 subunit of Komagataella phaffii RNA polymerase II (TAP-tagged) (Komagataella phaffii, UniProt F2QTX9 1-1227). Nature of the assay: cryo-EM structure.

B1: Komagataella phaffii Rai1 (E213A/D215A), kpRai1(2A) (enzyme)
chain: MSKEKILPLAARSKKAMLRQPKQVAYFSRDLNYKTHPDRSNLSYYYLPDGDIDNSIDLSVGSKHFLLGDSVELSKLDPILLALKEIEKESGAKTKDRIITWRGIMRKLLTLPYDSEEDFVLDVVSFDGQLFIQFNVPYLKSKDVQKQGDTEFHKKLQFSGYKFEKMATLPKPWPECTRKEIDSRAKSKCNNIEQYGAIVRTGISRIKILIGGAVACTADYYDENDPLSRYIELKTTRTINQYKDMIAFEKKLFRTWAQCFLLGIPKIIYGFRDDNCILRTVEEFSTNDIPLMVKNNPLNEQPKKENCYMSSINFYGAVVEWLNESVKDDQVWKLSYAKRNRQYLVLKEVTDENEKQQIVDSAIPAWFKEWRSELRNSEGNI
B1: the binding result was “binds”.
